Data taken from the PETadex activity labels (doi:10.1038/s41467-023-40233-w).
Numbering of substitutions follows the chain as printed.

B1: unnamed (protein)
chain: MLSFLRSTGRPERRRASLPALLLFTAALVASGLTAAPAAQAADNPYQRGPDPTNASIEAATGPFAVGTQPIVGASGFGGGQIYYPTDTSQTYGAVVIVPGFISVWAQLNWLGPRLASQGFVVIGIETSVITDLPDPRGDQALAALDWATTRSPVASRIDRTRLAAAGWSMGGGGLRRAALQRPSLKAIVGMAPWNGERNWSAVTVPTLFFGGSSDAVASPNDHAKPFYNSITRAEKDYIELRNADHFFPNSANTTMAKYFISWLKRWVDNDTRYTQFLCPGPSTGLFAPVSASMNTCPF
B2: unnamed (protein)
chain: B1 chain with A192T, N250T
B3: unnamed (protein)
chain: B1 chain with R157A, N250T
B4: unnamed (protein)
chain: B1 chain with R242C, N250T, S291C
B5: unnamed (protein)
chain: B1 chain with R198K, N250T
B6: unnamed (protein)
chain: B1 chain with L133Y, N250T
B7: unnamed (protein)
chain: B1 chain with V129T, L180C, R198K, A202C, R242C, N250T, S291C
B8: unnamed (protein)
chain: B1 chain with P136S, N250T
B9: unnamed (protein)
chain: B1 chain with Q107S, N250T
B10: unnamed (protein)
chain: B1 chain with R233A, N250T
B11: unnamed (protein)
chain: B1 chain with G196L, N250T
B12: unnamed (protein)
chain: B1 chain with T86R, N250T
B13: unnamed (protein)
chain: B1 chain with N109A, N250T
B14: unnamed (protein)
chain: B1 chain with A155R, L180C, A202C, R242C, N250T, S291C
B15: unnamed (protein)
chain: B1 chain with G76C, A143C, N250T
B16: unnamed (protein)
chain: B1 chain with N250T, A252N

Substrate: pcPET (post-consumer)
Assay: Proxy for plastic degradation [Released monomer concentration (HPLC/LC-MS) (TPA+MHET+BHET)]
Settings: pH 9

| Protein | Proxy for plastic degradation (40 °C, 24 h) | Proxy for plastic degradation (60 °C, 6 h) |
| --- | --- | --- |
| B1 | 10 µM |  |
| B2 | 495 µM |  |
| B3 | 225 µM |  |
| B4 | 890 µM |  |
| B5 | 950 µM |  |
| B6 | 405 µM |  |
| B7 | 1200 µM | 1020 µM |
| B8 | 680 µM |  |
| B9 | 620 µM |  |
| B10 | 715 µM |  |
| B11 | 520 µM |  |
| B12 | 485 µM |  |
| B13 | 720 µM |  |
| B14 | 948 µM | 360 µM |
| B15 | 295 µM |  |
| B16 | 530 µM |  |
